One data set has as its target T1, Fdh3A (Thermococcus onnurineus, UniProt B6YU84).
T1 construct: gene TON_0539; Catalytic subunit alone; N-terminal 6xHis tag; expressed in T. onnurineus MF02 (parent 156T, fdh3 region deleted); one-step TALON IMAC
T1 sequence (B6YU84 1-680): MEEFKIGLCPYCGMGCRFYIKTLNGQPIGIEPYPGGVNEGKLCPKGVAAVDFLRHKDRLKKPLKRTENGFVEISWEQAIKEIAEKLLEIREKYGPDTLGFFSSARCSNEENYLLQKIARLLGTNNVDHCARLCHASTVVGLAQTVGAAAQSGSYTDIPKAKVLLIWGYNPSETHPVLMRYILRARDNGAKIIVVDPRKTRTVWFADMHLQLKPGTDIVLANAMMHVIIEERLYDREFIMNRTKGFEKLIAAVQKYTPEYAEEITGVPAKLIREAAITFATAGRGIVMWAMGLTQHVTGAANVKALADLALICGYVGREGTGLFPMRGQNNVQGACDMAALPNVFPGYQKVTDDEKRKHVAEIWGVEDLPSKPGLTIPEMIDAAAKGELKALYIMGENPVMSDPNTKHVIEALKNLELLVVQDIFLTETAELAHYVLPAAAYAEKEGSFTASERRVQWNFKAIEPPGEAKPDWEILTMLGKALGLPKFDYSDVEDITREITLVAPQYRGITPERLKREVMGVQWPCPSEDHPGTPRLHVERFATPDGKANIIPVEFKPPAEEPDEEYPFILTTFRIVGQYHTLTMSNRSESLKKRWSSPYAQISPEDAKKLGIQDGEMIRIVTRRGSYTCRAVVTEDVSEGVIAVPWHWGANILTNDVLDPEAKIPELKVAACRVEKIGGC
Put plainly: formate-dependent methyl viologen reduction, absorbance at […] nm. The data set is classed as biochemical. To be noted: 100 mM sodium formate, 2 mM methyl viologen, 0.1 M Tris-HCl pH 8.5, 10% glycerol, 2 mM DTT; anaerobic; turnover only.

For data set [1], the target named is Fdh3A, formate dehydrogenase large (catalytic) subunit (TON_0539) of Thermococcus onnurineus NA1, with N-terminal 6X-His tag (Thermococcus onnurineus NA1). Put plainly: affinity purification with mass spectrometry; lysate of strain MF01 on TALON IMAC resin (N-terminal 6X-His on Fdh3A), eluted with 300 mM imidazole, then SEC on Superose 6 Increase 10/300 in buffer A (0.1 M Tris-HCl pH 8.0, 150 mM NaCl, 19 mM KCl, 10% glycerol); bands of the SDS-PAGE identified by MALDI mass spectrometry; anaerobic chamber.

Data set [2] has the same target.
Substrate in data set [3]: NC(=O)c1ccc[n+]([C@@H]2O[C@H](COP(=O)(O)OP(=O)(O)OC[C@H]3O[C@@H](n4cnc5c(N)ncnc54)[C@H](OP(=O)(O)O)[C@@H]3O)[C@@H](O)[C@H]2O)c1
Put plainly: purified protein. The data set is classed as biochemical, Thermococcus onnurineus. To be noted: co-substrate formate (100 mM in the standard assay), 0.1 M Tris-HCl pH 8.5, 10% glycerol, 2 mM DTT, anaerobic, optimum 80 °C (temperature of Km assay not stated), site on Fdh3B (TON_0542) by model.

Substrate in data set [4]: O=CO
Nature of the data set: purified protein. To be noted: NADP+ as electron acceptor (2 mM in the standard assay), 0.1 M Tris-HCl pH 8.5, 10% glycerol, 2 mM DTT, anaerobic, optimum 80 °C (temperature of Km assay not stated), catalytic site on Fdh3A (TON_0539).

For `O=CO` [formate], the “formate-dependent methyl viologen reduction, absorbance at 578 nm” value on Fdh3A was “The specific activities of formate-dependent methyl viologen reduction of Fdh3 and Fdh3A were similar”.

As to “Fdh3B, NAD(P)-binding protein (TON_0542) of Thermococcus onnurineus NA1 (natural protein)”, in data set [1], the stoichiometry N (commonly the number of molecules, sites or subunits per partner or assembly) stood at 1.

Regarding “ferredoxin Fd0317 (TON_0317) of Thermococcus onnurineus NA1 (from UniProt B6YTB5 1-67) (natural protein)”, in data set [2], the formate-dependent ferredoxin-reducing activity of Fdh3A alone (purified from strain MF02), based on the same methyl viologen activity came out at 16.8 mU/U; the formate-dependent ferredoxin-reducing activity of the purified Fdh3 complex (Fdh3A with Fdh3B, Fdh3G1 and Fdh3G2), based on the same methyl viologen activity is 17.9 mU/U. On to `C[n+]1ccc(-c2cc[n+](C)cc2)cc1` [methyl viologen], for which the “formate-dependent methyl viologen reduction, absorbance at 578 nm” value at Fdh3A was “The specific activities of formate-dependent methyl viologen reduction of Fdh3 and Fdh3A were similar”.

B1: Fdh3 (Thermococcus onnurineus NA1) (protein)
chain 1: MEEFKIGLCPYCGMGCRFYIKTLNGQPIGIEPYPGGVNEGKLCPKGVAAVDFLRHKDRLKKPLKRTENGFVEISWEQAIKEIAEKLLEIREKYGPDTLGFFSSARCSNEENYLLQKIARLLGTNNVDHCARLCHASTVVGLAQTVGAAAQSGSYTDIPKAKVLLIWGYNPSETHPVLMRYILRARDNGAKIIVVDPRKTRTVWFADMHLQLKPGTDIVLANAMMHVIIEERLYDREFIMNRTKGFEKLIAAVQKYTPEYAEEITGVPAKLIREAAITFATAGRGIVMWAMGLTQHVTGAANVKALADLALICGYVGREGTGLFPMRGQNNVQGACDMAALPNVFPGYQKVTDDEKRKHVAEIWGVEDLPSKPGLTIPEMIDAAAKGELKALYIMGENPVMSDPNTKHVIEALKNLELLVVQDIFLTETAELAHYVLPAAAYAEKEGSFTASERRVQWNFKAIEPPGEAKPDWEILTMLGKALGLPKFDYSDVEDITREITLVAPQYRGITPERLKREVMGVQWPCPSEDHPGTPRLHVERFATPDGKANIIPVEFKPPAEEPDEEYPFILTTFRIVGQYHTLTMSNRSESLKKRWSSPYAQISPEDAKKLGIQDGEMIRIVTRRGSYTCRAVVTEDVSEGVIAVPWHWGANILTNDVLDPEAKIPELKVAACRVEKIGGC
chain 2: MSGMRFAFLCRERPEPTGKKIAVIGAGPAGLAATGYLVCQGHEVHVYDKLPEPGGLMLFGIPEFRIPIYRVREGYEELERVYNVKFFTRTKVYFGNLEGESGDEFVENRVDFKELVEKYDAVLIATGTWKCWIPNIEGAELEGVFPALEYLFRIKSAKLGHMDWGKVTPVEGKKVLVVGAGHTAVDAALESVLLGADKVYLSYRRTIREAPAGAYEINLLQQRGVKWLERTMPVRIIGENGKVRAVELVKTKLSEPDESGRRRPVPIEGSNFQIDVDYVIFAVGQSPTPPFAEEIDIAVDKKGRIVVDNRHMTSREGVFAAGDVVLGPSKVGKAVKDGLYAAEAMHMWLMGR
notes: Tungsten-containing cytoplasmic complex; N-terminal 6xHis tag on TON_0539; overexpressed in T. onnurineus MF01 (fdh1 fdh2 fdh3 deleted), TALON IMAC and SEC; 524 kDa by SEC; TON_0541 not detected
Consider B1, for which the Michaelis constant (Km) – broadly, the concentration of substrate that gives half-maximal velocity – in the data set “purified protein [3]” amounted to 0.040 mM; in “purified protein [4]” it was 13.5 mM.
